# Results from paper PMC6488296.
# Columns and labels:
# [1] = target: GFP-PIF^S-TCR (moxGFP-noF-PIF^S-TCRβ) (Aequorea victoria | A. thaliana | human) (UniProt Q8L5W7); assay: flow cytometry on cells + other: calcium influx (Indo-1), fit of a mathematical model; surface-bound DyLight650-PhyBt on GFP-PIF^S-TCR cells (90 s, 37 C, different PhyBt concentrations and continuous 660 nm intensities) and all calcium data fitted together by maximum likelihood; PhyBt modelled as dimers, off-rates of both steps set equal; parameters are for darkness
# [2] = target: GFP-PIF^S-TCR (moxGFP-noF-PIF^S-TCRβ) (Aequorea victoria | A. thaliana | human) (UniProt Q8L5W7)
# [3] = target: GFP-PIF^S-TCR (moxGFP-noF-PIF^S-TCRβ) (Aequorea victoria | A. thaliana | human) (UniProt Q8L5W7); remark: listed apart in the source
# [4] = target: GFP-PIF^S-TCR (moxGFP-noF-PIF^S-TCRβ) (Aequorea victoria | A. thaliana | human) (UniProt Q8L5W7); assay: flow cytometry on cells + other: calcium influx (Indo-1), fit of a mathematical model; same fit as a6; half-life ln2/(koff+ki) under continuous 660 nm light, at the high end of the range of light intensities used
# Sequence of PhyB tetramers (fluorescently labeled streptavidin-based tetramers of PhyB_(1-651)-Avitag-His6) (P14713 1-651): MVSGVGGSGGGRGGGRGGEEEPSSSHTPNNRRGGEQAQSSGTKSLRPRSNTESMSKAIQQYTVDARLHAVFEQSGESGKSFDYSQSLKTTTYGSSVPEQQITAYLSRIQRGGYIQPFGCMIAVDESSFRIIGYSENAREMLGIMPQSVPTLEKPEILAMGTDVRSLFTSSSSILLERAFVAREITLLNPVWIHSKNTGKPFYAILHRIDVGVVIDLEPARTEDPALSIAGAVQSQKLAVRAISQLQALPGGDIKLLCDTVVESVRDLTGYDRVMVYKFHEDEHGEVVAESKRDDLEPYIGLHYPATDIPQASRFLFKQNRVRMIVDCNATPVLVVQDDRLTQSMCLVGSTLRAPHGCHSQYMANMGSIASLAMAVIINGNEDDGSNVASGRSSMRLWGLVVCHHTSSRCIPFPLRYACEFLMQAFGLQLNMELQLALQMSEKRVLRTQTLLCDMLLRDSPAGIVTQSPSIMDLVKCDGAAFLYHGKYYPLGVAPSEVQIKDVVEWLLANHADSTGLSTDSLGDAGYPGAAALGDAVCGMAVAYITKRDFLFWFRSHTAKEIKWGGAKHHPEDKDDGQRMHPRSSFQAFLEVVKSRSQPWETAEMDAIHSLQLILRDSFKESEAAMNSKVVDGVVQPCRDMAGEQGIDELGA
# Sequence of PhyB tetramers (fluorescently labeled streptavidin-based tetramers of PhyB_(1-651)-Avitag-His6) (P22629 25-183): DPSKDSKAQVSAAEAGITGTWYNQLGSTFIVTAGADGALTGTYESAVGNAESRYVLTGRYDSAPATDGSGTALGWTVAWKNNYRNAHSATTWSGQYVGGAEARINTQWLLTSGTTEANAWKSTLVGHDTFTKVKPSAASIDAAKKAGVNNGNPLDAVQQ
substance,measurement,setting,value
PhyB tetramers (fluorescently labeled streptavidin-based tetramers of PhyB_(1-651)-Avitag-His6) (from UniProt P14713 1-651; P22629 25-183) (complex),Kd,[1],22 nM
same,"Q = qon/qoff, association constant of multivalent binding step (darkness), dimensionless",[1],11
same,"half-life of PhyB ON-PIF-TCR complex (darkness), ln(2)/koff",[1],40 s
same,"qon, binding rate of receptor cross-linking (second, bivalent step)",[1],0.19 s⁻¹
same,"ongoing calcium response evoked by PhyBt(660) in the dark, then continuous 660 nm light of 2% to 32% intensity; intensity threshold to maintain the response (% 660 nm intensity)",[2],3
same,calcium influx under continuous 660 nm light of different intensities (dark to 32%) and different PhyBt concentrations; intensity threshold for a calcium response (% 660 nm intensity),[3],3
same,"half-life of the PhyB ON-TCR complex, ln2/(koff+ki), under continuous 660 nm light",[4],2 s
